The source of these data is the supplement of paper PMC10567573.

First the molecules themselves.
B1: ZNF8 (parent)
chain: RIHTGERPYMCKECGKAFSQNSSL
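Also: lentivirally expressed fusions sorted by FACS into six bins by GFP to DsRed ratio, PSI derived from sequencing read proportions per bin multiplied by bin number.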

The variants in the data set derive from B1. In words: protein stability index of a GFP-peptide fusion (GPS, HEK-293T) (PSI 1-6); higher = more stable. As to conditions: c terminus: a fixed tail appended.
Consider RIHTGERPYMCKECGVAFSQNSSL [K16V], for which the protein stability index worked out at 1.71.

Consider RIHTGERPYMCKECGQAFSQNSSL [K16Q], for which the protein stability index stood at 2.27.

For RIHTGERPYMCKECGEAFSQNSSL [K16E], the protein stability index worked out at 2.97.

RIHTGERPYMCKECGIAFSQNSSL [K16I]: the protein stability index came to 2.08.

Take RIHTGERPYMCKECGGAFSQNSSL [K16G]: the protein stability index turned out to be 2.41.

Regarding RVHTGERPYMCKECGKAFSQNSSL [I2V], the protein stability index was 2.29.

In the case of RYHTGERPYMCKECGKAFSQNSSL [I2Y], the protein stability index is 2.73.

On to REHTGERPYMCKECGKAFSQNSSL [I2E], for which the protein stability index was 2.87.

With RIHTGERPYMCKEAGKAFSQNSSL [C14A], the protein stability index was determined as 3.1.

With RIHTGERPYMCKEGGKAFSQNSSL [C14G], the protein stability index was found to be 3.18.

On to RIHTGERPYMCKEMGKAFSQNSSL [C14M], for which the protein stability index turned out to be 2.29.

Consider RIHTGERPYMCKEFGKAFSQNSSL [C14F], for which the protein stability index was found to be 2.65.

On to RIHTGERPYMCKECSKAFSQNSSL [G15S], for which the protein stability index is 3.2.

Consider RIHTGERPYMCKECEKAFSQNSSL [G15E], for which the protein stability index was 3.46.

As to RIHTGERPYMCKECQKAFSQNSSL [G15Q], the protein stability index turned out to be 3.26.

On to RIHTGERPYMCKECKKAFSQNSSL [G15K], for which the protein stability index worked out at 2.99.

As to RIHTGERPYMCKECRKAFSQNSSL [G15R], the protein stability index was 2.76.

For RIHTGERPYMCKECVKAFSQNSSL [G15V], the protein stability index worked out at 2.33.

With RIHTYERPYMCKECGKAFSQNSSL [G5Y], the protein stability index was 2.73.

Take RIHTQERPYMCKECGKAFSQNSSL [G5Q]: the protein stability index was determined as 2.47.

Consider RIHTGERPYQCKECGKAFSQNSSL [M10Q], for which the protein stability index was found to be 3.16.

For the variant RIHTGERPYNCKECGKAFSQNSSL [M10N], the protein stability index stood at 2.12.

With RIHTGERPYECKECGKAFSQNSSL [M10E], the protein stability index turned out to be 3.1.

In the case of RIHTGERPYWCKECGKAFSQNSSL [M10W], the protein stability index turned out to be 2.3.

As to RIHTGERPYYCKECGKAFSQNSSL [M10Y], the protein stability index came out at 2.24.

In the case of RIHTGERPYRCKECGKAFSQNSSL [M10R], the protein stability index came out at 1.95.

Consider RIHTGERPYHCKECGKAFSQNSSL [M10H], for which the protein stability index worked out at 2.52.

For RIHTGERPYTCKECGKAFSQNSSL [M10T], the protein stability index came out at 3.03.

For RIHTGERPYMCKECGKAFSQNSYL [S23Y], the protein stability index stood at 2.03.

RIHTGERPYMCKECGKAFSQNSQL [S23Q]: the protein stability index amounted to 2.58.

RIHTGERPYMCKECGKAFSQNSTL [S23T]: the protein stability index was 2.27.

On to RIHTGERPYMCKECGKAFSQNSGL [S23G], for which the protein stability index turned out to be 2.3.

For RIHTGSRPYMCKECGKAFSQNSSL [E6S], the protein stability index came to 1.33.

In the case of RIHTGYRPYMCKECGKAFSQNSSL [E6Y], the protein stability index was 1.88.

As for RIHTGLRPYMCKECGKAFSQNSSL [E6L], the protein stability index amounted to 2.

On to RIHTGHRPYMCKECGKAFSQNSSL [E6H], for which the protein stability index stood at 2.36.

In the case of RIHTGWRPYMCKECGKAFSQNSSL [E6W], the protein stability index is 2.27.

RIHTGERPYMCKECGKAFSQNSSF [L24F]: the protein stability index was found to be 2.48.

For RIHTGERPYMCKECGKAFSQNSSY [L24Y], the protein stability index is 2.18.

Turning to RIHTGERPYMCKECGKAFSQNSSC [L24C], the protein stability index amounted to 3.17.

RIHTGERPYMCKECGKAFSQNSSS [L24S]: the protein stability index is 3.55.

RIHTGERPYMCKECGKAFSQNFSL [S22F]: the protein stability index turned out to be 1.89.

With RIHTGERPYMCKECGKAFSQNLSL [S22L], the protein stability index stood at 2.05.

Consider RIHTGERPYMCKECGKAFSQNNSL [S22N], for which the protein stability index turned out to be 2.37.

Regarding RIHTGERPYMCKECGKAFSQNDSL [S22D], the protein stability index is 2.4.

On to RIHTGERPYMCKECGKFFSQNSSL [A17F], for which the protein stability index is 2.42.

Take RIHTGERPYMCKECGKMFSQNSSL [A17M]: the protein stability index amounted to 2.67.

As for RIHTGERPYMCKECGKKFSQNSSL [A17K], the protein stability index stood at 3.

Take RIHTGERPYMCKECGKIFSQNSSL [A17I]: the protein stability index came to 2.41.

Take RIHTGERPYMCKECGKDFSQNSSL [A17D]: the protein stability index was found to be 2.84.

With RIHTGERPYMCKECGKTFSQNSSL [A17T], the protein stability index amounted to 3.29.

In the case of PIHTGERPYMCKECGKAFSQNSSL [R1P], the protein stability index worked out at 3.17.

Consider NIHTGERPYMCKECGKAFSQNSSL [R1N], for which the protein stability index was found to be 2.85.

For EIHTGERPYMCKECGKAFSQNSSL [R1E], the protein stability index is 2.87.

Take YIHTGERPYMCKECGKAFSQNSSL [R1Y]: the protein stability index was found to be 2.2.

Turning to RIHTGERPYMCKHCGKAFSQNSSL [E13H], the protein stability index came to 2.14.

Consider RIHTGERPYMCKVCGKAFSQNSSL [E13V], for which the protein stability index was determined as 2.1.

With RIHTGERPYMCKECGKAFSQISSL [N21I], the protein stability index amounted to 2.04.

In the case of RIHTGERPYMCKECGKAFTQNSSL [S19T], the protein stability index came to 2.35.

Take RIHTGERPYMCKECGKAFYQNSSL [S19Y]: the protein stability index amounted to 2.18.

With RIHTGERPYMCKECGKAFNQNSSL [S19N], the protein stability index is 2.31.

As for RIHTGERPYMQKECGKAFSQNSSL [C11Q], the protein stability index came out at 3.04.

RIHTGERPYMHKECGKAFSQNSSL [C11H]: the protein stability index is 2.75.

Turning to RIHTGERPYMCKECGKAYSQNSSL [F18Y], the protein stability index was found to be 2.39.

For the variant RIHTGERPYMCKECGKAQSQNSSL [F18Q], the protein stability index stood at 2.79.

For RIHTGEWPYMCKECGKAFSQNSSL [R7W], the protein stability index stood at 2.9.

As to RIHTGEKPYMCKECGKAFSQNSSL [R7K], the protein stability index is 2.35.

For RIHTGETPYMCKECGKAFSQNSSL [R7T], the protein stability index was found to be 4.

Take RIHTGEAPYMCKECGKAFSQNSSL [R7A]: the protein stability index stood at 2.6.

As for RIHTGERPYMCEECGKAFSQNSSL [K12E], the protein stability index was determined as 2.9.

In the case of RIHTGERPYMCMECGKAFSQNSSL [K12M], the protein stability index was found to be 2.52.

Turning to RIHTGERPYMCVECGKAFSQNSSL [K12V], the protein stability index was determined as 2.07.

RIHTGERPYMCQECGKAFSQNSSL [K12Q]: the protein stability index turned out to be 2.11.

Regarding RIYTGERPYMCKECGKAFSQNSSL [H3Y], the protein stability index was 2.33.

Take RIVTGERPYMCKECGKAFSQNSSL [H3V]: the protein stability index came out at 2.05.

For the variant RITTGERPYMCKECGKAFSQNSSL [H3T], the protein stability index was 2.8.

On to RISTGERPYMCKECGKAFSQNSSL [H3S], for which the protein stability index amounted to 2.38.

In the case of RIATGERPYMCKECGKAFSQNSSL [H3A], the protein stability index turned out to be 1.99.

As for RIHTGERPHMCKECGKAFSQNSSL [Y9H], the protein stability index worked out at 2.86.

With RIHTGERPPMCKECGKAFSQNSSL [Y9P], the protein stability index was 2.48.

With RIHTGERPSMCKECGKAFSQNSSL [Y9S], the protein stability index was determined as 2.2.

Turning to RIHTGERPKMCKECGKAFSQNSSL [Y9K], the protein stability index is 1.83.

For RIHTGERPYMCKECGKAFSFNSSL [Q20F], the protein stability index came to 1.83.

With RIHTGERPYMCKECGKAFSINSSL [Q20I], the protein stability index stood at 2.4.

Consider RIHTGERPYMCKECGKAFSHNSSL [Q20H], for which the protein stability index was 2.49.

Consider RIHTGERPYMCKECGKAFSLNSSL [Q20L], for which the protein stability index was 2.1.

For the variant RIHTGERPYMCKECGKAFSMNSSL [Q20M], the protein stability index stood at 2.21.

For RIHTGERPYMCKECGKAFSCNSSL [Q20C], the protein stability index came out at 2.54.

Consider RIHTGERPYMCKECGKAFSVNSSL [Q20V], for which the protein stability index stood at 1.79.

As for RIHTGERDYMCKECGKAFSQNSSL [P8D], the protein stability index worked out at 3.23.

Consider RIHVGERPYMCKECGKAFSQNSSL [T4V], for which the protein stability index is 2.59.

For the variant RIHFGERPYMCKECGKAFSQNSSL [T4F], the protein stability index is 2.42.

For RIHYGERPYMCKECGKAFSQNSSL [T4Y], the protein stability index turned out to be 2.1.

As to RIHEGERPYMCKECGKAFSQNSSL [T4E], the protein stability index came to 3.16.
